# Assay results from patent publication US6528619B1, “Inhibitors for urokinase receptor” (Roche Diagnostics GmbH, priority 1997, dated 2003).
# Positions of bridges follow the written chain, without caps; N, C: chain ends. Residues, ends and D or L forms follow the SMILES beside them. No end group written: not given here.
# B1: uPA18-30 (peptide, UniProt P00749 38-50, looked up)
# peptide: TCVSNKYFSNIHW
# notes: range 18-30
# B2: uPA16-32 (peptide, UniProt P00749 36-52, looked up)
# peptide: GGTCVSNKYFSNIHWCN
# notes: range 16-32
# B3: uPA20-32 (peptide, UniProt P00749 40-52, looked up)
# peptide: VSNKYFSNIHWCN
# notes: range 40-52
# B4: clone 20-peptide AEPMPHSLNFSQYLWYT (peptide)
# peptide: AEPMPHSLNFSQYLWYT
# B5: uPA20-34 (peptide, UniProt P00749 40-54, looked up)
# peptide: VSNKYFSNIHWCNCP
# notes: range 40-54
# B6: linear peptide uPA19-31 (peptide)
# peptide: CVSNKYFSNIHWC
# notes: Linear form
# Tests used:
# [1] = biological target: T1, cell surface-associated uPAR (Homo sapiens, UniProt Q03405); test: Flow cytometry: inhibition of binding of FITC-conjugated pro-uPA to cell surface-associated uPAR on PMA-stimulated U937 cells
# T1 construct: After stimulation with PMA the U937 cells expressed considerable amounts of cell surface-associated uPAR; endogenous in cells; host or cells: U937 cells stimulated with PMA
# T1 sequence (Q03405 23-305): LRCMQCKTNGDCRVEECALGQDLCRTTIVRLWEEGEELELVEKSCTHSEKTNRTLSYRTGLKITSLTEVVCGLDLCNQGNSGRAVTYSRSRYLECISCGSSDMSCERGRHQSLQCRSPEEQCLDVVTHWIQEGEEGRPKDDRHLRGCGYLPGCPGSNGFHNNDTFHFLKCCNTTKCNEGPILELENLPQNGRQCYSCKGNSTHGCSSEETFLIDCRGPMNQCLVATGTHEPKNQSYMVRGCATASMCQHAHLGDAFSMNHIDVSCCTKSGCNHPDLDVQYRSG
# Method: The ability of the synthetic peptides to inhibit the uPA/-uPAR interaction was determined by means of flow cytometry on a FACScan flow cytometer (Becton-Dickinson, Heidelberg, Germany) using the human promyeloid cell line U937 as a source of cellular native uPAR (Chuchulowski et al., Fibrinolysis 6, Suppl. 4 (1992), 95-102; Magdolen et al., (1996), supra). The U937 cells were stimulated with […] phorbol-12-myristate-13-acetate (PMA) for 48 h. After stimulation with PMA the U937 cells expressed considerable amounts of cell surface-associated uPAR.
# The stimulated cells were treated for 1 min at room temperature with 50 mM glycine HCl, 0.1 NaCl, pH 3.6 in order to dissociate endogenous receptor-bound uPA. Subsequently the acidic buffer was neutralized with 0.5 M HEPES-100 mM NaCl, pH 7.5. The cells were then immediately washed twice with PBS/0.1% bovine serum albumin (BSA) and centrifuged for 10 min at room temperature and 300×g. The cells were resuspended in PBS/0.1% BSA, adjusted to a concentration of 10^6 cells per ml and simultaneously incubated for 45 minutes at room temperature with 16 ng FITC-conjugated pro-uPA and various amounts of the synthetic peptides. Before the analysis, propidium iodide, a fluorescent dye which specifically binds double-stranded DNA, was added to each sample in order to determine the viability of the analysed U937 cells. Damaged, propidium iodide-labelled cells were excluded from the analysis.
# For this the purified peptides were analysed by mass spectroscopy, quantified by amino acid analysis and then tested by flow cytometry according to the method described in 1.3 for their ability to inhibit the binding of fluorescent-labelled pro-uPA to the uPA receptor on U937 cells.
# recombinant human uPAR = biological target: T2, recombinant human uPAR (Homo sapiens, UniProt Q03405); test: Microtitre plate solid phase ATF-ligand binding test (competition with ATF for uPAR); details: for inhibition of the binding of ATF to uPAR / uPAR binding capacity: 0.6 ng ATF together with 15 μg synthetic peptide per ml, FIG. 2
# T2 construct: made in house; host or cells: CHO cells
# T2 sequence (Q03405 23-299 limits assumed): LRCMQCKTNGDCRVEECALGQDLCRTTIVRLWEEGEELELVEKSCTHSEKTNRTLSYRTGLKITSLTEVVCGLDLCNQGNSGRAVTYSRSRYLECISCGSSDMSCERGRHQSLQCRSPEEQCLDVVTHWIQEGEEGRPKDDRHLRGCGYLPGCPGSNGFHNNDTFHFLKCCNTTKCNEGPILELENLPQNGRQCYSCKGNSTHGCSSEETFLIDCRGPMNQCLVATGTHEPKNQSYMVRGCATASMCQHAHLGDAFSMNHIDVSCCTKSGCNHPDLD
# Method: In addition to the flow cytometric analyses, a solid phase ATF-ligand binding test was carried out in order to examine the interactions of synthetic peptides with the uPAR. For this microtitre plates were coated with recombinant human uPAR from CHO cells (Wilhelm et al., FEBS Lett. 337 (1994), 131-134; Magdolen et al., Electrophoresis 16 (1995), 813-816) and the remaining protein-binding sites were saturated with 2% BSA (weight/vol.). After incubation with the samples (0.6 ng ATF together with 15 μg synthetic peptide per ml) and several wash steps, the amount of ATF which had bound to the immobilized uPAR on the microtitre plate was determined using a biotinylated monoclonal mouse antibody against the kringle domain of ATF (No. 377, American Diagnostics, Greenwich, Conn., USA) and subsequent addition of avidin-peroxidase conjugate and 3,3′,5,5′-tetramethylbenzidine/[…] as a substrate for the peroxidase. The presence of synthetic peptides which compete with the ATF binding to uPAR reduces the conversion of the chromogenis substrate.
# A series of peptides with variable sequence regions from the receptor binding region of uPA were synthesized and were increasingly shortened at the amino terminus starting with uPA10-32. The microtitre plate solid phase binding test described in 1.4 was used to determine the inhibitory capacity of these peptides.
# [2] = Stability of binding activity after long storage in aqueous solution or repeated freeze/thaw cycles; type: physicochemical; details: compared with linear uPA19-31
# [3] = biological target: T3, recombinant human uPAR from CHO cells (human, UniProt Q03405 23-299, limits assumed); test: solid phase ATF-ligand binding test, competition with ATF on immobilized recombinant uPAR
# T3 construct: Magdolen et al. 1995; also called immobilized uPAR
# T3 sequence (Q03405 23-299 limits assumed): as above
# [4] = biological target: T4, cell surface-associated uPA receptor (uPAR) on PMA-stimulated human U937 cells (human, UniProt Q03405 23-305); test: flow cytometry, competition with FITC-pro-uPA on U937 cells
# T4 construct: whole, on cells; also called urokinase receptor; cellular native uPAR
# T4 sequence (Q03405 23-305): as the sequence (Q03405 23-305) above
# Method: (§1) The U937 cells were stimulated with […] phorbol-12-myristate-13-acetate (PMA) for 48 h.
# (§2) Subsequently the acidic buffer was neutralized with 0.5 M HEPES-100 mM NaCl, pH 7.5. The cells were then immediately washed twice with PBS/0.1% bovine serum albumin (BSA) and centrifuged for 10 min at room temperature and 300×g. […] Before the analysis, propidium iodide, a fluorescent dye which specifically binds double-stranded DNA, was added to each sample in order to determine the viability of the analysed U937 cells. Damaged, propidium iodide-labelled cells were excluded from the analysis.
# [5] = biological target: T4, cell surface-associated uPA receptor …; test: flow cytometry, competition with FITC-pro-uPA on U937 cells (section 2.1)
# Method: as §1, §2
molecule,measurement,setting,value
CC[C@H](C)[C@H](NC(=O)[C@H](CC(N)=O)NC(=O)[C@H](CO)NC(=O)[C@H](Cc1ccccc1)NC(=O)[C@H](Cc1ccc(O)cc1)NC(=O)[C@H](CCCCN)NC(=O)[C@H](CC(N)=O)NC(=O)[C@H](CO)NC(=O)[C@@H](NC(=O)[C@H](CS)NC(=O)[C@@H](NC(=O)CNC(=O)CN)[C@@H](C)O)C(C)C)C(=O)N[C@@H](Cc1c[nH]cn1)C(=O)N[C@@H](Cc1c[nH]c2ccccc12)C(=O)N[C@@H](CS)C(=O)N[C@@H](CC(N)=O)C(=O)O [uPA16-32] (H-GGTCVSNKYFSNIHWCN-OH; N-terminus and C-terminus assumed),IC50,[1],~3200 nM
same,molar excess resulting in a 50% inhibition of the binding of uPA,"[1]; U937 cells, 16 ng FITC-conjugated pro-uPA, 45 min, room temperature","approximately 3,000 molar excess"
same,higher affinity to uPAR compared to the two other peptides,[1]; versus uPA12-32 [C19A] and clone 20 peptide,4- to 5 fold
same,inhibition of the binding of ATF to uPAR / uPAR binding capacity,recombinant human uPAR,effectively inhibit the binding of ATF to uPAR
"cyclo^19,31uPA19-31: cyclic peptide which contains an intramolecular disulfide bond between the cysteine residues at positions 19 and 31 (CVSNKYFSNIHWC; disulfide 1-13)",inhibition of the binding of uPA to the uPA receptor,recombinant human uPAR; cyclic peptide with disulfide bond between Cys 19 and 31,still able to inhibit the binding of uPA to the uPA receptor
same,stability of binding activity,[2],significantly more stable
"uPA10-32: peptide from the receptor binding region of uPA, amino acids 10-32 (NCDCLNGGTCVSNKYFSNIHWCN)",inhibition of the binding of ATF to uPAR / uPAR binding capacity,recombinant human uPAR,effectively inhibit the binding of ATF to uPAR
uPA12-31: peptide from the receptor binding region of uPA (DCLNGGTCVSNKYFSNIHWC),inhibition of the binding of ATF to uPAR / uPAR binding capacity,recombinant human uPAR,effectively inhibit the binding of ATF to uPAR
uPA14-32: peptide having the amino acids 14 to 32 of uPA (LNGGTCVSNKYFSNIHWCN) [reference compound],inhibition of the binding of ATF to uPAR / uPAR binding capacity,recombinant human uPAR,effectively inhibit the binding of ATF to uPAR
uPA17-32: peptide from the receptor binding region of uPA (GTCVSNKYFSNIHWCN),inhibition of the binding of ATF to uPAR / uPAR binding capacity,recombinant human uPAR,considerably reduced uPAR binding capacities
uPA18-30: linear peptide from the receptor binding region of uPA (TCVSNKYFSNIHW),inhibition of the binding of ATF to uPAR / uPAR binding capacity,recombinant human uPAR,no significant binding capacity
uPA18-34: peptide from the receptor binding region of uPA (TCVSNKYFSNIHWCNCP),inhibition of the binding of ATF to uPAR / uPAR binding capacity,recombinant human uPAR,considerably reduced uPAR binding capacities
uPA20-30: linear peptide from the receptor binding region of uPA (VSNKYFSNIHW),inhibition of the binding of ATF to uPAR / uPAR binding capacity,recombinant human uPAR,no significant binding capacity
uPA20-32: linear peptide from the receptor binding region of uPA (VSNKYFSNIHWCN),inhibition of the binding of ATF to uPAR / uPAR binding capacity,recombinant human uPAR,no significant binding capacity
uPA20-34: peptide from the receptor binding region of uPA (VSNKYFSNIHWCNCP),inhibition of the binding of ATF to uPAR / uPAR binding capacity,recombinant human uPAR,does not bind at all to the uPAR
B1,binding result,[3],no binding (tested: 15 µg synthetic peptide per ml)
B2,molar excess for 50% inhibition of the binding of uPA,[4],~3000 fold molar excess
B3,binding result,[3],no binding (tested: 15 µg synthetic peptide per ml)
B4,molar excess for 50% inhibition of the binding of uPA,[4],~12000 fold molar excess
B5,binding result,[3],no binding (tested: 15 µg synthetic peptide per ml)
B6,IC50,[5],~800 nM
